The record followed here is patent US20240174755A1 (published 2024).

Assay [1] deals with T1, human EGFR/HER1/ErbB1 Protein (His Tag, Sino Biological; Cat. Number 10001-H08H) (human, UniProt P00533 25-645).
T1 construct: Bought; construct not described; not shown: His tag
The assay is described as follows: direct ELISA, EGFR coated, streptavidin-HRP detection. As to the method:
(§1) 96-well maxisorp (Nunc) immunosorp plates were coated with 2 ug/ml of human PDGFRa (Sino Biological; Cat. Number; 10556-HCCH) or 2 ug/ml human EGFR/HER1/ErbB1 Protein (His Tag, Sino Biological; Cat. Number; 10001-H08H) in PBS, 100 ul per well, at 4C overnight. Wells were washed thrice in PBS. Unspecific binding sites were blocked in 4% BSA/PBS for 1 h at RT, followed by washing thrice in PBS. VHH-biotin conjugates, diluted at 0.01-100 nM in 1% BSA/PBS, were incubated for 1 h at RT, followed by washing thrice in PBS. Streptavidin-horseradish peroxidase (HRP; GeneTex) was diluted 1:40,000 in 1% BSA/PBS and was incubated for 1 h at RT. PDGFRa or EGFR was detected with positive control antibodies rabbit anti-human PDGFRa/CD140a Antibody, (Cat no: 10556-R065) or rabbit anti-human EGFR/HER1/ErbB1 (Catalog no: 10001-R021, both from Sino Biological) diluted in 1% BSA/PBS at 1:5000 and were incubated for 1 h at RT, shaking. Secondary HRP-conjugated anti-rabbit-antibody was diluted at 1:5000 in 1% BSA/PBS and was incubated for 1 h at RT, shaking. Wells were washed 6 times in PBS. o-Phenylenediamine dihydrochloride (OPD; Sigma-Aldrich) was used as HRP substrate at 0.4 mg/ml in 0.05 M phosphate-citrate buffer pH 5.0 with 0.03% sodium perborate (Sigma-Aldrich), prepared according to the manufacturer's recommendations, and was used in volume of 100 ul per well. Reaction was allowed to proceed for 30 min at RT in dark, and was stopped by adding 50 ul of 1.5 M HCl. Optical density was measured at 492 nm on a Synergy H1 microplate reader (BioTek).

For assay [2], the target named is T2, human PDGFRa (Sino Biological; Cat. Number 10556-HCCH) (human, UniProt P16234 24-524, limits assumed).
T2 construct: Bought; construct not described; also called PDGFRα
The assay is described as follows: direct ELISA, PDGFRa coated, streptavidin-HRP detection. As for the experimental part:
as §1
VHH-biotin binding to human PDGFRa was assessed using an ELISA, where wells were coated with PDGFRa, and VHH-biotin binding was detected using streptavidin-HRP with OPD as a substrate.

The target in assay [3] is T3, human PDGFR β extra-cellular domain (ECD), Fc- and His-tagged (Sino Biological) (human, UniProt P09619 33-532).
T3 construct: extracellular domain; Bought; also called hECD; Fc/His-tagged PDGFR β ECD; not shown: Fc tag and His tag
The assay is described as follows: biotin-streptavidin ELISA, human PDGFR β ECD coated at 1 ug/ml. As to the method: (§2) In this example, the binding affinity of biotin-conjugated VHHs 1B5 and 1E12 to either human or mouse PDGFR β extra-cellular domain (ECD) was assessed using biotin-streptavidin ELISA. Human or mouse PDGFR β ECD was coated on immunoassay wells, where 1B5-biotin or 1E12-biotin were captured. Binding was detected using streptavidin-HRP and ODP as a substrate.
ELISA Method 96-well maxisorp (Nunc) immunosorp plates were coated with 1 ug/ml or 2 ug/ml of PDGFR β extracellular domain (ECD; Fc- and His-tagged, Sino Biological) or mouse PDGFR β ECD (R&D Systems) 4 ug/ml in PBS, 100 ul per well, at 4C overnight. Wells were washed thrice in PBS. Unspecific binding sites were blocked in 4% BSA/PBS for 1h at RT, followed by washing thrice in PBS. VHHs 1B5-biotin or 1E12-biotin, diluted at 0.01-100 nM in 1% BSA/PBS, was allowed to bind on ECD for 1 h at RT, followed by washing thrice in PBS. Streptavidin-horseradish peroxidase (HRP; GeneTex) was diluted 1:10,000 in 1% BSA/PBS and was incubated for 1 h at RT. […] Optical density was measured at 492 nm on a Synergy H1 microplate reader (BioTek). […]

The target in assay [4] is T4, mouse PDGFR β ECD (R&D Systems) (mouse, UniProt P05622 32-531).
T4 construct: extracellular domain; Bought; also called mECD; mouse ECD
T4 sequence (looked up): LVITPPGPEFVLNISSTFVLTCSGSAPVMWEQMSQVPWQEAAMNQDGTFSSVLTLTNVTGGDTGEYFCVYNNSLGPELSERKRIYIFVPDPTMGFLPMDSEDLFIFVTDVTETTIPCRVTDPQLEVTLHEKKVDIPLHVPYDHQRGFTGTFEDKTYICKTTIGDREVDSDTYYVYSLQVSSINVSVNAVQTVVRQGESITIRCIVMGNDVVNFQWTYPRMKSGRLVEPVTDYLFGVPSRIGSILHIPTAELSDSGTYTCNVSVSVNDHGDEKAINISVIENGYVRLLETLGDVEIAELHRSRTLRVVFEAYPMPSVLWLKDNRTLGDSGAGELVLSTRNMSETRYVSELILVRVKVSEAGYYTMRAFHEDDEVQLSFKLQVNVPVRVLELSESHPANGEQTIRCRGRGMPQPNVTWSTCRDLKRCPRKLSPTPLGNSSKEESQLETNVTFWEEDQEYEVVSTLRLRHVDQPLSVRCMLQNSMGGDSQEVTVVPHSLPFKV
The assay is described as follows: biotin-streptavidin ELISA, mouse PDGFR β ECD coated at 4 ug/ml. As for the experimental part: as §2
ELISA Method 96-well maxisorp (Nunc) immunosorp plates were coated with 1 ug/ml or 2 ug/ml of PDGFR β extracellular domain (ECD; Fc- and His-tagged, Sino Biological) or mouse PDGFR β ECD (R&D Systems) 4 ug/ml in PBS, 100 ul per well, at 4C overnight. Wells were washed thrice in PBS. Unspecific binding sites were blocked in 4% BSA/PBS for 1h at RT, followed by washing thrice in PBS. VHHs 1B5-biotin or 1E12-biotin, diluted at 0.01-100 nM in 1% BSA/PBS, was allowed to bind on ECD for 1 h at RT, followed by washing thrice in PBS. Streptavidin-horseradish peroxidase (HRP; GeneTex) was diluted 1:10,000 in 1% BSA/PBS and was incubated for 1 h at RT. […] Optical density was measured at 492 nm on a Synergy H1 microplate reader (BioTek).

The target of assay [5] is T3, human PDGFR β extra-cellular domain …. The assay is described as follows: SPR (Biacore 3000), Fc/His PDGFR β ECD captured on protein A; only 1E12-Flag-His was run in SPR. As to the method:
(§3) FIG. 11: VHH (flag-his-tagged, or conjugated with HL488, NOTA or 800 CW) binding to human extracellular domain (ECD) of PDGFR β assessed with surface plasmon resonance (SPR). Fc/His-tagged PDGFR β ECD was bound to protein A chemically conjugated to CM4 sensor chip. Binding of VHHs was tested at 0.39-50 nM. Shown are representative SPR Biacore traces of tagged or conjugated 1B5 VHH (panels A); tagged or conjugated 1D4 VHH (panels B); tagged or conjugated 1H4 VHH (panels C) or tagged VHH 1E12 (panel D).
(§4) SPR analysis was performed using the Biacore 3000 instrument (GE Healthcare). Protein A was chemically bound to a CM4 sensor chip (GE Healthcare) according to the primary amine procedure to approximately 2100 response units (RU). Fc/His-tagged PDGFR β ECD at 0.4-2.07 ng/ul was bound to protein A at flow rate of 35 ul/min. Run buffer HBS-EP (GE Healthcare; 0.01 M HEPES pH 7.4, 0.15 M NaCl, 3 mM EDTA, 0.005% v/v Surfactant P20) was used for VHHs 1D4, 1H4 and 1E12 conjugates at 50, 25, 12.5, 6.25, 3.13, 1.56, 0.78 and 0.39 nM. For 1B5 conjugates, HBS-EP+0.5 M NaSCN was as run buffer to reduce non-specific binding to a control path without PDGFR β ECD. A flow rate 70 ul/min was used for VHH injections in volumes of 150 ul. Regeneration of the sensor CM4 chip was performed by three successive injections of c. 30 s 10 mM glycine-HCl pH 2, 10 mM glycine-HCl pH 1.5, and 0.5 M NaSCN/10 mM NaOH.

The target of assay [6] is human PDGFR β ECD (U-protein Express, Utrecht) (human) (UniProt P09619). The assay is described as follows: dose response ELISA on immobilized PDGFR β.
For assay [7] the target is unchanged. Description: dose response ELISA, PDGFR β ECD coated at 2 µg/ml, rabbit anti-VHH detection.
The target of assay [8] is T3, human PDGFR β extra-cellular domain …. The assay is described as follows: SPR (Biacore 3000), Fc/His PDGFR β ECD captured on protein A; 1D4 construct not stated. As for the experimental part: as §3, §4

B1: 1B5-biotin (VHH)
VHH: EVQLVESGGGLVQPGGSLRLSCVASGFSFSESAMSWVRQAPGKGLEWLSGISSGGGRSTTYAESVEGRFTISRDDAKNTLMLQMNSLKSEDTAVYYCAKTGYCSGYNCNFAPRGQGTQVTVSS
modifications: Biotin-maleimide on the C-terminal cysteine of the C-Direct tag
notes: ID NO: 25 or 26; also called VHH 1B5-biotin; biotin-conjugated 1B5; not shown: C-terminal C-Direct tag with a free cysteine and an EPEA purification tag (vector pYQVQ11)
B1: the binding result in assay [1] and in assay [2] was “no binding (tested: 0.01-100 nM)” each time. The EC50 in assay [3] was determined as 0.117 nM.

B2: 1E12-biotin (VHH)
VHH: EVQLVESGGGLVQAGGSLRLSCAPSERSFSAYLMGWFRQAQGKEREFVAAWRWPTSTTYYSDSGKGRFTITGDNAKNTVELEMNSLKPEDTAVYYCAARRGILYGPATSPTAYDFWGQGTQVTVSS
modifications: Biotin-maleimide on the C-terminal cysteine of the C-Direct tag
notes: ID NO: 31 or 32; also called VHH 1E12-biotin; biotin-conjugated 1E12; not shown: C-terminal C-Direct tag with a free cysteine and an EPEA purification tag (vector pYQVQ11)
Regarding B2, the binding result in assay [1] and in assay [2] was “no binding (tested: 0.01-100 nM)” in each case. In assay [4], the EC50 turned out to be 1.1 nM.

B3: 1E12-Flag-His (VHH)
VHH: B2 VHH
notes: Made in E. coli; ID NO: 31 or 32 (N-terminal residue differs); also called VHH 1E12 (flag-his-tagged); tagged VHH 1E12; not shown: C-terminal FLAG-His tag from vector pMEK222
For the molecule B3, the Kd in assay [5] is ~100 nM.

B4: QPD-1D4 (VHH)
VHH: EVQLVESGGGLVQAGDSLRLSCAVSGRAQSRDVVGWFRQAPGKEREFLALVTRSYSTYYGASVKGRFTISRDNAKNTVHLEMNSLKPEDTGVYYCAADQGFCSGSGCYDWRTFHVWGQGTQVTVSS
notes: Purified, unconjugated VHH; also called VHH 1D4
Take B4: the apparent binding affinity in assay [6] turned out to be 0.5 nM. Moreover, the apparent affinity in assay [7] is < 1 nM. Further, the Kd in assay [8] was ~0.02 nM.
